According to patent publication US20090041784A1 (Amgen, published 2009):
Residue numbers refer to the chain shown, from its start.

T1: cynomolgus glucagon receptor (cynomolgus (Macaca fascicularis), UniProt P47871 26-477 (human entry))
T1 chain: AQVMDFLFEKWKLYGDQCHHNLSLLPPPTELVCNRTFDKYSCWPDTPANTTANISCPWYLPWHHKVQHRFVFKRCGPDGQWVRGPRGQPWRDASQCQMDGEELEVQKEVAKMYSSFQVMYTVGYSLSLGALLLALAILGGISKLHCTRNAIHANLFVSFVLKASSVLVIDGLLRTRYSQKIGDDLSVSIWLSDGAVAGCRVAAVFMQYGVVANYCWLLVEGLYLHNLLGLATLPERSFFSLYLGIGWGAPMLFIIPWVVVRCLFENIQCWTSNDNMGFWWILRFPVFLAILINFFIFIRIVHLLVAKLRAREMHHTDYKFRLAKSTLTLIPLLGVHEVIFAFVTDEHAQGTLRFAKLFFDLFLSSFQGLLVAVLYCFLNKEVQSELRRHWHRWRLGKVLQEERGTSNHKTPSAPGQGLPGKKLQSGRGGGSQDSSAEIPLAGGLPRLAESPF

B1: antibody A-16 (antibody, V domains shown)
VH: QVQLVQSGAEVKKPGASVKVSCKASGYTFTGYYLHWVRQAPGQGLEWMGWIIPDSGGTKYAQKFQGRVTMTRDTSISTAYLELSRLRSDDTAVYYCAREGFHYDILTGSYFYYYGMDVWGQGTTVTVSS
VL: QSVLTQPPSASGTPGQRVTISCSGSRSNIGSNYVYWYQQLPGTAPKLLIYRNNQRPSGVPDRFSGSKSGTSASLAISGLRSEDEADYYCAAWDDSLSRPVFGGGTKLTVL
notes: Human antibody from XenoMouse hybridoma (IgG2 or IgG4 strains), purified from conditioned medium; also called L16H16
B2: antibody A-20 (antibody, V domains shown)
VH: EVQLVESGGDLVQPGGSLRLSCAASGFTFSGYTLNWVRQAPGKGLEWVSNINSRSSLIYYTDSVKGRFTISRDNAKNSLYLQMNSLRDEDTAVYFCARDQYNWNYYYGMDVWGQGTTVTVSS
VL: DIQMTQSPSSLSASVGDRVTITCRASQGIRNDLGWYQQKPGKAPKRLIYAASSLQSGVPSRFSGSGSGTEFTLTISNLQPEDFATYYCLQHNSYPRSFGQGTKLEIK
notes: Human antibody from XenoMouse hybridoma; also called L20H20
B3: antibody A-23 (antibody, V domains shown)
VH: EVRLVESGGGLVQPGGSLRLSCTASGFPFNRYAMNWVRQAPGKGLEWVSYIGSSSSAIYYADSVKGRFTISRDNAKNSLYLQMNSLRDEDTAVYYCARYSSGWSPLFDYWGQGTLVTVSS
VL: DIQMTQSPSSVSASVGDRVTITCRASQGISSWLAWYQQKPGKAPKLLIYTASTLQSGVPSRFSGSGSGTDFTLTISSLQPEDFATYYCQQSNSFPLTFGGGTKVEIK
notes: Human antibody from XenoMouse hybridoma (IgG2 or IgG4 strains), purified from conditioned medium; also called L23H23
B4: antibody A-17 (antibody, V domains shown)
VH: QVQLVQSGAEVKKPGASVKVSCKASGYTFTSYGISWARQAPGQGLEWMGWIGVYNGHTKYAQKFQGRVTMTTDTSTSTAYMELRSLRSDDTAIFYCARRVAVAGYFDYWGQGTLVTVSS
VL: QSVLTQPPSVSGAPGQRVTISCTGSSSNIGAGYAVHWYQQLPGTAPKLLIYDNNNRPSGVPDRFSGSKSGTSASLAITGLQAEDEADYYCQSYDSSLSAIFGGGTKLTVL
notes: Human antibody from XenoMouse hybridoma (IgG2 or IgG4 strains), purified from conditioned medium; also called L17H17
B5: antibody A-10 (antibody, V domains shown)
VH: QVQLQQSGPGLVRPSQTLSLTCAISGDSVSSNYAAWNWIRQSPSRGLEWLGRTYYRSKWYNDYAVSVRSRTTINPDTSKNQFSLQLNSVTPEDTAVYYCTREDGSGWYGAFDIWGQGTMVTVSS
VL: DIQMTQSPSSLSASVGDRVTITCQASQDISKYLNWYQQKPGKAPKLLIYDASNLETGVPSRFSGSGSGTDFTFTISSLQPEDIATYYCQQYGNLPITFGQGTRLESK
notes: Human antibody from XenoMouse hybridoma (IgG2 or IgG4 strains), purified from conditioned medium; also called L10H10
B6: antibody A-18 (antibody, V domains shown)
VH: QVQLVESGGGVVQPGRSLRLSCAASGFTFSRYGMHWVRQAPGKGLEWVAVIWYDGSHKYYEDSVKGRFTISRDNSKNTLYLQMNSLRADDTGVYYCARVGYGSGWYEYYYHYGMDVWGQGTTVTVSS
VL: NIVMTQTPLSLSVTPGQPASISCKSSQSLLHSDGKNYLFWYLQKPGQSPQLLIYEVSYRFSGVPDRFSGSGSGTDFSLKISRVEAEDVGVYYCMQNIQPPLTFGQGTRLEIK
notes: Human antibody from XenoMouse hybridoma (IgG2 or IgG4 strains), purified from conditioned medium; also called L18H18
B7: antibody A-9 (antibody, V domains shown)
VH: QVQLVESGGGVVQPGRSLRLSCAASGFTFSSYGMHWVRQAPGKGLEWVAVMWYDGSNKDYVDSVKGRFTISRDNSKNTLYLQMNRLRAEDTAVYYCAREKDHYDILTGYNYYYGLDVWGQGTTVTVSS
VL: B2 VL with Q55E, N77S, L78V, A84V, Y94N, R96L, S97T, Q100G, L104V
B8: antibody A-15 (antibody, V domains shown)
VH: QVQLVESGGGVVQPGKSLRLSCAVSGFIFSSYGMHWVRQAPGKGLEWVALISFDGSNKYYADSVKGRFTISRDNSKNTLYLQMNSLRAEDTAVYYCARDGYYDILTGYEDDAFDIWGQGTMVTVSS
VL: not shown
B9: antibody A-5 (antibody, V domains shown)
VH: QVQLVESGGGVVQPGRSLRLSCAASGFTFSTYGMHWVRQAPGKGLEWVAVISDDGSHKYSADSVKGRFTISRDNSKNTLYLQMNSLRTEDSAVYYCAREETYYDILTGYHHYYGMDVWGQGTTVTVSS
VL: B2 VL with S14F, I48L, T69S, N77S, Y94D, R96L, S97T, K103R
B10: antibody A-7 (antibody, V domains shown)
VH: QVQLVESGGGVVQPGRSLRLSCAASGFTFSSYDMHWVRQAPGKGLEWVAVISHDGSDKYYADSVKGRFTISRDNSKNTLYLQMSSLRAEDTAVYYCAREKPYYDILTGYFYYYGMDVWGQGTTVTVSS
VL: B2 VL with I21V, G28D, L33F, N77S, H91Q, R96L, S97T, Q100G, L104V
B11: antibody A-11 (antibody, V domains shown)
VH: QVQLVESGGGVVQPGRSLRLSCAASGSTFRSYDMHWVRQAPGKGLEWVAFISDDGSNKYYGDSVKGRLTISRDNSKNTLYLQMNSLRAEDTAVYYCARDQYDILTGYSSDAFDIWGQGTMVTVSS
VL: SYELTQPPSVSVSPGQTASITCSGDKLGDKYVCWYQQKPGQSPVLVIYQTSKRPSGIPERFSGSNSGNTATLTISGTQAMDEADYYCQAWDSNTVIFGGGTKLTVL
B12: antibody A-13 (antibody, V domains shown)
VH: B11 VH with F50V, D53Y
VL: not shown
B13: antibody A-12 (antibody, V domains shown)
VH: B11 VH
VL: not shown
B14: antibody A-14 (antibody, V domains shown)
VH: QVQLVESGGGVVQPGRSLRLSCAASGFTFSNYGMHWVRQAPGKGLEWVAVIWYDGSNKYYADSVKGRFTISRDNSKNTLYLQMNSLRAEDTAVYYCARAYYDILTDYPQYDYYYGMDVWGQGTTVTVSS
VL: NFMLTQPHSVSESPGKTVTISCTRSSGSIVSNFVQWYQQRPGSSPTTVIYEDNQRPSGVPDRFSGSIDSSSNSASLTISGLKTEDEADYYCQSYDTSNQVFGGGTKLTVL
B15: antibody A-1 (antibody, V domains shown)
VH: QVQLVESGGGVVQPGRSLRLSCAASGITFSSYGMHWVRQAPGKGLEWVASIWYDGSNKYYVDSVKGRFTIFRDNSKKTLYLQMNRLRAEDTAVYYCARLGGGFDYWGQGTLVTVSS
VL: DIVLTQTPLSLPVTPGEPASISCRSSQSLLDRDDGDTYLDWYLQKPGQSPQLLIYTLSYRASGVPDRFSGSGSGTDFSLKISRVEAEDVGVYYCMQRIEFPFTFGPGTKVDIK
B16: antibody A-8 (antibody, V domains shown)
VH: B15 VH with V5A, A23T, S50G, S56R, F71S, R85S, G100A, G101V, G102A
VL: B15 VL with L4M, S26T, R32S, S78T
B17: antibody A-22 (antibody, V domains shown)
VH: B15 VH
VL: B15 VL
B18: antibody A-2 (antibody, V domains shown)
VH: B15 VH with A40G, S50F, N57E, F71S, K77N, R85S, L99M
VL: B15 VL with L4M, R32S, D33A, G74D
B19: antibody A-6 (antibody, V domains shown)
VH: QVQLVESGGGVVQPGRSLRLSCAASGFTFSSYGMHWVRQAPGKGLEWVAEIWNDGSNKYYADSVKGRFTISRDNPKNTLYLQMNSLRAEDTAVYYCAREPQYYDILTGYDNYYGMDVWGQGTTVTVSS
VL: EIVLTQSPGTLSLFPGERATLSCRASQSVSSNYLAWYQQKSGQAPRLLIYGASSRATGIPDRFSGSGSGTDFTLTISRLEPEDFAVYYCQQYGNSPFTFGPGTNVDIK

The binders below were run against T2, human glucagon receptor (human, UniProt P47871 26-477) (assay: competition with 1 nM Alexa-labeled A-3 for human GCGR on CHO cells, FMAT).
T2 construct: also called human GCGR; GCGR

Binder | binding result
B1 | binds
B2 | binds
B3 | binds
B4 | binds

Each binder was assayed against T3, chimera-15 (amino acids 80-119 from human GCGR, remainder from human GLP-1 receptor) (human, UniProt P43220 24-83; P43220 125-463) (assay: FMAT on cells expressing the chimeric receptor).
T3 construct: Expressed on cells; not shown: in-frame C-terminal fluorescent protein, not identified

Binder | binding result
B5 | no binding
B6 | no binding

The binders below were run against T4, chimera-8 (amino acids 80-477 from human GCGR, remainder from human GLP-1 receptor) (human, UniProt P43220 24-83) (assay: FMAT on cells expressing the chimeric receptor).
T4 construct: Expressed on cells; not shown: in-frame C-terminal fluorescent protein, not identified

Binder | binding result
B5 | no binding
B6 | no binding

These binders were tested against T5, chimera-10 (amino acids 80-142 from human GCGR, remainder from human GLP-1 receptor) (human, UniProt P43220 24-83; P43220 146-463) (assay: FMAT on cells expressing the chimeric receptor).
T5 construct: Expressed on cells; not shown: in-frame C-terminal fluorescent protein, not identified

Binder | binding result
B5 | no binding
B6 | no binding

What follows are binders tested against rat glucagon receptor (rat (Rattus norvegicus), UniProt P30082 27-485) (assay: cell-based or functional assay).

Binder | IC50 of inhibition of glucagon-induced cAMP production (HTRF, CHO K1 cells expressing the receptor)
B7 | 9.9 nM

Molecular target: T1, cynomolgus glucagon receptor
Test: cell-based or functional assay

Binder | IC50 of inhibition of glucagon-induced cAMP production (HTRF, CHO K1 cells expressing the receptor)
B7 | 26.6 nM

What follows are binders tested against mouse glucagon receptor (mouse (Mus musculus), UniProt Q61606 27-485) (assay: cell-based or functional assay).

Binder | IC50 of inhibition of glucagon-induced cAMP production (HTRF, CHO K1 cells expressing the receptor)
B7 | 4.1 nM

These binders were tested against T2, human glucagon receptor (assay: cell-based or functional assay).

Binder | IC50 of inhibition of glucagon-induced cAMP production (HTRF, CHO K1 cells expressing the receptor)
B7 | 7.4 nM

Molecular target: T2, human glucagon receptor
Test: cell-based or functional assay
Remark: another data set of the same source

Binder | IC50 of inhibition of glucagon-induced cAMP production (HTRF, CHO K1 cells expressing the receptor)
B8 | 11.3 nM
B9 | 13.3 nM
B10 | 8.8 nM
B11 | 16.7 nM
B12 | 72.6 nM
B13 | 21.3 nM
B14 | 458 nM
B6 | 204 nM
B15 | 15 nM
B16 | 10.4 nM
B17 | 7.2 nM
B18 | 10.1 nM
B19 | 32.2 nM
